Data on 50 sequences can be found in the domain aggregation screens of Martell et al. (2025).

This series can be described thus: soluble fraction after stress (log2 fold change); higher = more stays soluble; pooled small domains, quantitative proteomics. The settings on record: stress: 75 degC.
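Further: 20 min heating vs room temperature control held 20 min.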

Consider “HMAAEGARNNSLFNSLRERALEVSSHNELEQIAFKMNETNIPPLRASEVISVVNSVWKNRISNQIIP”, for which the “soluble fraction (log2)” value came out at 0.266.
Consider “HMAAFGDLLSELRRDMNMTQDELAKVLFVSPGTISNYENNIHFPDVPKLKQIAQYFGVTTDYLLG”, for which the “soluble fraction (log2)” value is -0.519.
On to “HMAAINTYQVRKIYAIAGALGMKSRDGDDALHDLVFGMTGKQHISGLTSAEAYDVIAELEKKQ”, for which the “soluble fraction (log2)” value is -1.6.
The figure for “HMAALKVAVLTVSDTRTQETDTSGAFLEGALREAGHEIADRQIVIDDVYQLRAIVSQWIADPEVEVILT” is -0.121; for “HMAALTADEAKQIALKHAGVAESDVQRLKVEQDRDDGRLLYEVEWDVGRTEYSYEIDANTGDILNYEKDV” it is -0.000944; for “HMAANKIDEDRNTELLQVIQNKFPDADAATKKSVKEIMKEHDIPNFKNADDIPTAVLEQIVKVLNQ” it is -0.378.
Regarding “HMAAPLTDRETEVLTLLARGLINKQIAEELHIGLTTVITHRRNIMEKLRVRSLAELILRAVAAGYVDAGR”, the “soluble fraction (log2)” value is -1.79.
Take “HMAARKDLIAGEDAEGRLDAWLAAALDGEFSRNRVKALIEQGAVAINDVAVTEPKRKIRPGDRLSIVLPEP”: the “soluble fraction (log2)” value worked out at 0.325.
As for “HMAARLMRALIPYAQGGLLAKLHEDGQVLSEEYTGEGIEVKALADEQLFGRLTVQLGEQAVSWQD”, the figure is -0.163; as for “HMAASTPGTVTGSVVNVRPDPSTNNDRIGVIYQGTKVEILAQVGEWYNIQFGPVSGWVHKDYISTGA”, -0.421; as for “HMAATISPEIQAEAEKAAALGVESIKNFMASLKEKNPEQHALFSDSEKRRLYAIARKADLNTTQQG”, 0.595.
“HMAAVPQPQRSETIVYIGGRKFYVHTVQAGETLYSIARLYGVSEQTLVANNPTMADVVKADQNVRIPVPA”: the “soluble fraction (log2)” value was -1.96.
Regarding “HMAAYRLIPLGNSNKDFETYQEAIQYMRDKLDESSKAFEEGKQNWVYSGRVYGVPWSDGRTTFTVDLVPKV”, the “soluble fraction (log2)” value was 0.594.
The figure for “HMADASVTAYFKIAEDRLQGRLPDTFSEASLKARYQLTPAQLTAVLTRIAQEGWAERKPGYGWAFSSML” is -1.62; for “HMADEIMYPVQVNGKVRAEIFVAADQSKNKELVLEMAKSEERVQKYLEEGNLIKEIFVPGRIVNLVI” it is 0.162.
In the case of “HMADEIQIGLQKAIQSLPEKQKLVFSMRYYDEIPYDEMSKILDMSVGTLKTNYHYAKQKIEDFLQNH”, the “soluble fraction (log2)” value is -1.22.
The figure for “HMADFIGMNATVTERIFPQGFGRISFVYEGNSISEPARSEDGKEIPTGTSVVVLEVRDKVYIVQPL” is -2.35.
“HMADGDIIPEGQRDATLASLAGSMRARGMTEAEILAALQVTNETRVRPPMALADLERIARSIGRYEPGK”: the “soluble fraction (log2)” value came to 0.0569.
Take “HMADKGTITNQQEKILKALILFPEGASIEEIQKAADLGIDKRQFQRRLNTLIESGQINRTGKSRGTKYHTI”: the “soluble fraction (log2)” value was 0.201.
As for “HMADLKVGFVHRAGSVLERELDDVLEALEMYRSALAIDPSHKPSLDALTRISQLADYREQAAEILEPLPR”, the figure is -0.767.
As for “HMADLNFHQQIRSLPPEQQEILLLRFGQELTLRQIAQVTGVPLRTVQSRLRAALKKLKSQLEKEE”, the figure is -0.696.
As for “HMADLPQATALADVKGDVQMQGIQFGYDPEKIIIHDLNLHARPGSLVAIVGPTGAGKTTIINLLMRFYD”, the figure is -1.75.
Take “HMADLVYLRKRLQDAIAQLPEDMRTAYTLFQIARRSIREIAELTGASESLVKVRIHRAKGKLQELLEDLR”: the “soluble fraction (log2)” value was -2.57.
The figure for “HMADPAVLIAELFRAMPEKRFSVKNLISATGAETREQKDYVREVVHSLSREGMIEQVAEGKYRLSASE” is 0.299; for “HMADQVLVMTRAVGQGDIVRNADIGLTSVAVDRAVATIPASQLDKIVGRHALVDLSPGQLLGSHSVGE” it is 0.147.
For “HMADRDKYIIMGQQLLRAAFEHFGKKATDKALENAANKLRISDVPELYARLGSAELQPRDVINVIFPD”, the “soluble fraction (log2)” value was -0.308.
As for “HMADRLITLSEVASLLRVSRHTVQAWISPSSPNHRPEFAIMARHAGRRTVFIEAEVTAWLDQRRG”, the figure is -2.14.
The figure for “HMADVSPEAQHKMVEAFAQFGVTKEHIEQRIQRRLDAIQPAQMVTLKRIFASLRDGMSTPAEWFE” is -0.639; for “HMADYSGYLGKKGKVIAPLRPAGTALIDGERVDVVSFGDYIDKDSEIEVVKIEGSKLLVKKY” it is 0.28; for “HMAEAIVMSTAAPVKSSPDPQSKDIFVLHEGTKVAVGDSLGDWREIRIADGNKGWVLVSAIEMI” it is 0.0397.
The figure for “HMAEDGNMTFEEYAKRWLARQVRYAPSTLESYRRMLGRVYPFIGAIPINRLRPIALENLLAELRKRT” is -0.582; for “HMAEEFESMTEARRLELARLVDSRGFVRVTDAAEELGVSDVTIRGDLSELERRGLLTRVHGGAMPVT” it is -0.00431.
As to “HMAEKEYYYATDALNLRQGPGMEHTVKGEVVLGERVALLGLEGKWAKIQNAQGTTGYVFSAYLAPS”, the “soluble fraction (log2)” value is -0.196.
As for “HMAEMLENQLKHAKSKQEANEYIAAAIGGVSDDDPDKEYLVAAYNEISKEFHHSSAYHRLPDT”, the figure is 0.16.
With “HMAEMRYLDQIYEVNVPLPDLSLEDGDLLARWAVNFHQRYEELFSYRQSDQEIRLVTLRVTVLGELP”, the “soluble fraction (log2)” value was -0.65.
The figure for “HMAENMNAALRVSSLINQIGTVNAKAKDRIESARKAYDALSEAQKAYVANLTTLETAETSLSKL” is 0.0786.
As for “HMAENTIPSVIGKTLSDATFLLESYGYERGGVSEEYSEMPKGVVIRQSPQAGSSADPGTKVNLVVSLGEEI”, the figure is 0.538.
The figure for “HMAENTKKWDETGRRYRSYIKLEKRLSENTVESYMRDYMQFAHFILRQWDVAPHKVEPQMVERYMAWLYER” is -0.795.
As for “HMAEPIAAGKYTVSTSGSVLNMRVSPDADSQVLEKIPNGTIVEVTKSVLGWAYVTYNSAQGWVSSAYLV”, the “soluble fraction (log2)” value was -1.62.
The figure for “HMAEPLMTQIVEIEYADAEGLRENLEQFLTRLDEKTLLGSVLVDRHTNSLIIQAVRSDLERMLPLIETLDR” is -0.804.
As for “HMAEPLYKQVKNKIIQNLTSDEWKPGSVIPSETKLAETYGVGVSTIRMAIGELVAARILIRRQGKGTFVSS”, the figure is -2.1; as for “HMAEQDILQSVYPHIGGQDNVSRTISRNGTLYLMLKDASAVDLKAVKQVPGIADAALERGRLTLQLEE”, -0.203; as for “HMAEQLGNSRTANMVMLGAMIERTGVISIDSAMEALKATFGPKKEHLLPINRQAMEAGAAAARAV”, 0.104.
As for “HMAERVWASLLEIKNAVAIEDAKTLEDVDNSEKIAEERIAALNDDAKHPLAIAFIGKLRQDIAEKKIELA”, the figure is 0.413; as for “HMAESSPYTVRPGDTLWKILAQTQNARYNDFPYLYRKFRELNPNITDLNHIVSGQKIIVPHIPG”, -0.331.
On to “HMAESTRSRILNAAIEMMETGGESSVRLSAIAEALGIKEPSIYHHFTNRTELVNAAYIEWYW”, for which the “soluble fraction (log2)” value was -1.07.
The figure for “HMAEVDREEALRIALAHAAVARRDVRNLKIERGEENGVPVYKVEFETAFGDFDVAVSRRSGDVVDAD” is -0.0382; for “HMAEVIYGAGKTPAQMLGILRTMQAHGQKTVLITRLREEAAEEIGREIPLQYDKTAGVGIVGTLPQPDG” it is -0.102.
For “HMAEVPSLIGKSLDAAKQAIIDAGFKVGSVSYDNSDSYGKGQVMWQQYEPSTKVKKGSSISIKVSKGS”, the “soluble fraction (log2)” value was -0.00107.
As for “HMAEVRTLLVPIELAGMRFDQVLAELLPEFSRSRLAAWIKSGDALLDGHDAKPKGVVRGGEQIEIRLA”, the figure is -0.0127.
